From patent EP4309676A1 (Emergence Therapeutics AG, dated 2024)
Blank lines part the entries; values can stand above or below the binder they belong to.

How the values were obtained:
[1] = biological target: T1, human Nectin-4 on cells (CHO cells transfected with human Nectin-4 cDNA); normal differentiated human … (human, UniProt Q96NY8 32-510); assay: flow cytometry on normal differentiated human keratinocytes (NHEK), 8 pM-33 nM (FIG. 15); reference antibody of the comparison
T1 construct: whole, on cells
T1 sequence (looked up): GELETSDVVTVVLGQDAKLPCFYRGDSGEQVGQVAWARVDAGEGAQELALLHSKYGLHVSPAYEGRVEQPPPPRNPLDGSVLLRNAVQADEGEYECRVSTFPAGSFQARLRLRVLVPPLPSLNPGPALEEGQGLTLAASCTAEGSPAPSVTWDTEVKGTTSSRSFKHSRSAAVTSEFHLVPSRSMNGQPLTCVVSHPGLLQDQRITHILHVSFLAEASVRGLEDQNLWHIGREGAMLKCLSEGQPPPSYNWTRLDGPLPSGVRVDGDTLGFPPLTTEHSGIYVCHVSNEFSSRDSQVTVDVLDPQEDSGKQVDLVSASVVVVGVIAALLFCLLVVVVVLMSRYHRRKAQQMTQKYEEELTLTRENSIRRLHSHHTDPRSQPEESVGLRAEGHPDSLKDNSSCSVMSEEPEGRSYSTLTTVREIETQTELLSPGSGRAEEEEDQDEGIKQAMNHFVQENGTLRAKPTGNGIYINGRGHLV

[2] = biological target: T2, N-terminal Flag-tagged human Nectin-4 expressed on transfected MDA-MB231 cells (human, UniProt Q96NY8 32-510); assay: flow cytometry on MDA-MB231 cells transfected with N-terminal Flag-tagged Nectin-4 (FIG. 1)
T2 construct: whole, on cells; also called PVRL4; not shown: N-terminal Flag tag
T2 sequence (looked up): T1 sequence (looked up)

[3] = biological target: T3, Nectin-4 IgV-like domain Fc fusion recombinant protein (human, UniProt Q96NY8 32-147, limits assumed); assay: ELISA, plate coated with Nec4-V, peroxidase-conjugated Ch-15A7.5 (FIG. 2)
T3 construct: domain: IgV-like domain; also called Nec4-V; Nectin-4-V-Fc; not shown: Fc part
T3 sequence (looked up): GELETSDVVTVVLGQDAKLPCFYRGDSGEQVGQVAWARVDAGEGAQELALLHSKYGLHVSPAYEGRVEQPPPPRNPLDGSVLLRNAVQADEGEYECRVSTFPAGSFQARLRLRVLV

[4] = biological target: T1, human Nectin-4 on cells (CHO cells …); assay: flow cytometry on normal differentiated human keratinocytes (NHEK), 8 pM-33 nM (FIG. 15)
[5] = biological target: T4, Nectin-4 extracellular domain Fc fusion recombinant protein (human, UniProt Q96NY8 32-349); assay: ELISA, plate coated with Nec4-VCC, peroxidase-conjugated Ch-15A7.5 (FIG. 2)
T4 construct: extracellular domain; also called Nec4-VCC; Nectin-4-VCC-Fc; not shown: Fc part
T4 sequence (looked up): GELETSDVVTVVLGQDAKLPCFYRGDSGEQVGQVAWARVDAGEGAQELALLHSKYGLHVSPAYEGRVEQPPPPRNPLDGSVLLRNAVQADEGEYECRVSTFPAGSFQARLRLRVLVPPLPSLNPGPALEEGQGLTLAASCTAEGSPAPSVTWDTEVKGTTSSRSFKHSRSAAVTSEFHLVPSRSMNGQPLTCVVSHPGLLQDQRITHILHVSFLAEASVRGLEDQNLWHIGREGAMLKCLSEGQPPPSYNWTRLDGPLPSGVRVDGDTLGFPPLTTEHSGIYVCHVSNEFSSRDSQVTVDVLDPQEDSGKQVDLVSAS

[6] = biological target: T5, Nectin-1 extracellular domain Fc fusion recombinant protein (UniProt Q15223 31-355, limits assumed); assay: ELISA, plate coated with Nec1-VCC, peroxidase-conjugated Ch-15A7.5 (FIG. 2)
T5 construct: extracellular domain; also called Nec1-VCC; Nectin-1-VCC-Fc; not shown: Fc part
T5 sequence (looked up): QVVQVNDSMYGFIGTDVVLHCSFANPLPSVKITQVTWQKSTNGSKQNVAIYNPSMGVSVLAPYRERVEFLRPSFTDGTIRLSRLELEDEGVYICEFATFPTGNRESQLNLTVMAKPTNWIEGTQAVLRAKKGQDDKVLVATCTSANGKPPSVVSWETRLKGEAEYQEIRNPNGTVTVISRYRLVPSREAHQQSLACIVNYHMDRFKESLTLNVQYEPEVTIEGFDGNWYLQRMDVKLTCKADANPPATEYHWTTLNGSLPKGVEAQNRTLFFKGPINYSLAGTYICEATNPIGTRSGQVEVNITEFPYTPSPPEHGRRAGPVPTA

binding result [1]: binds
binding result [2]: binds
B1: Ch-5A12.2 (chimeric form of the anti-Nectin-4 monoclonal antibody 5A12.2) (antibody, V domains shown)
VH: QIQLQQSGAELVKPGASVTLSCKTSGFTFNSMYISWLKQKPGQSLEWIAWIYAGTGGTRFNQKFTGKVQLTVDTSSSTAYMQFSSLTTDDSAIYYCAIRSGFVPMDYWGQGTSVTVSS
VL: SIVMTQTPKFLLVSAGDRVTITCKASQSVSNDVAWYQQKPGQSPKLLIYYASNRYTGVPDRFTGSGYGTDFTFTISTVQAEDLAVYFCQQDYSSPWTFGGGTKLEIK
notes: also called 5A12.2 mAb

binding result [3]: binds
binding result [2]: binds
binding result [4]: binds
binding result [5]: binds
binding result [6]: no binding (tested: 10 nM)
B2: Ch-15A7.5 (chimeric form of the anti-Nectin-4 monoclonal antibody 15A7.5) (antibody, V domains shown)
VH: EVKLVESGGGLVQPGGSRKLSCAASGFTFSNYGMAWVRQAPGKGPEWVAFISNLAYGINYADTVTGRFTISRENAKNTLYLEMRSLRSEDTAMYYCARGARATGWFAYWGQGTLVTVSA
VL: DIVMTQSQKFMSTSIGDRVSVTCKASQNVDTHVAWYQEKPGQSPKALIYSASYRYSGVPDRFTGSGSGTDFTLTISNVQSEDLADYFCQQYNSYPLTFGGGTKLEIK
notes: also called 15A7.5 mAb
